Test results as given in PMC13061415, “A structural code for assembly specificity in GID/CTLH-type E3 ligases” (eLife, 2026).

Assays:
Settings in all cases: both partners purified
[1] = molecular target: muskelin CTLH-CRA domain co-expressed with Twa1_52 (rat); assay: SEC-MALS; CTLH-CRA domain complexes co-expressed in E. coli and purified as complexes; Superdex 75 10/300 GL; 20 mM tricine pH 8.0, 500 mM NaCl, 1 mM TCEP
[2] = molecular target: T1, Wdr26 CTLH-CRA domain (136-278) (mouse, UniProt Q8C6G8 136-278); assay: as above
T1 construct: Wdr26, mouse, residues 136-278; Could not be purified on its own; source: E. coli BL21 CodonPlus (DE3) RIL, co-expressed with tagless Twa1_52, complex purified (Ni-IDA, 3C cleavage, SEC); not shown: His6, N-terminal, cleaved
T1 sequence (looked up): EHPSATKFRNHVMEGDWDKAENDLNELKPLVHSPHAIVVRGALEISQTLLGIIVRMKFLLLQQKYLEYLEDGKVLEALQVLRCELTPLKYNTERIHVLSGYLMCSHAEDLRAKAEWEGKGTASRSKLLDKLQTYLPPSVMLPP

[3] = molecular target: T2, muskelin CTLH-CRA domain (205–735 Δ248–625) (rat, UniProt Q99PV3 205-735, Δ248–625); assay: ITC; muskelin CTLH-CRA (160 μM, syringe) titrated into RanBP10 or Twa1 CTLH-CRA variants (16 μM, cell); 25°C; 20 mM tricine pH 8.0, 500 mM NaCl, 1 mM TCEP; one-site model
T2 construct: muskelin, rat, fusion of the CTLH motif and the C-terminus (CRA^N-like): residues 205-735 with 248-625 deleted; also called muskelin wt; CTLH-Ct construct; source: E. coli BL21 CodonPlus (DE3) RIL, purified as described previously (van gen Hassend et al., 2023)
T2 sequence (Q99PV3 other isoform, or with tags, fused parts or gaps Δ248–625 | Δ248–625 | mutant): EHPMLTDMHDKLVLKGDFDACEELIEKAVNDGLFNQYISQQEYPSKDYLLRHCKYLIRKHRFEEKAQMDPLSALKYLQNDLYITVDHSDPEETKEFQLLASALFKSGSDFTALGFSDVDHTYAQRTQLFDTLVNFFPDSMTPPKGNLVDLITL

muskelin (1–735) = molecular target: T3, muskelin (1–735) (rat, UniProt Q99PV3 1-735); assay: ITC; Twa1_52 CTLH-CRA (192 μM, syringe) titrated into muskelin (1–735) or Wdr26 (102–641) (19 μM, cell); 25°C; 20 mM tricine pH 8.0, 500 mM NaCl, 1 mM TCEP; one-site model
T3 construct: muskelin, rat, residues 1-735; also called full-length muskelin; tetrameric muskelin; source: E. coli BL21 CodonPlus (DE3) RIL, purified as described previously (van gen Hassend et al., 2023)
T3 sequence (Q99PV3 whole entry, the tested form may be a part): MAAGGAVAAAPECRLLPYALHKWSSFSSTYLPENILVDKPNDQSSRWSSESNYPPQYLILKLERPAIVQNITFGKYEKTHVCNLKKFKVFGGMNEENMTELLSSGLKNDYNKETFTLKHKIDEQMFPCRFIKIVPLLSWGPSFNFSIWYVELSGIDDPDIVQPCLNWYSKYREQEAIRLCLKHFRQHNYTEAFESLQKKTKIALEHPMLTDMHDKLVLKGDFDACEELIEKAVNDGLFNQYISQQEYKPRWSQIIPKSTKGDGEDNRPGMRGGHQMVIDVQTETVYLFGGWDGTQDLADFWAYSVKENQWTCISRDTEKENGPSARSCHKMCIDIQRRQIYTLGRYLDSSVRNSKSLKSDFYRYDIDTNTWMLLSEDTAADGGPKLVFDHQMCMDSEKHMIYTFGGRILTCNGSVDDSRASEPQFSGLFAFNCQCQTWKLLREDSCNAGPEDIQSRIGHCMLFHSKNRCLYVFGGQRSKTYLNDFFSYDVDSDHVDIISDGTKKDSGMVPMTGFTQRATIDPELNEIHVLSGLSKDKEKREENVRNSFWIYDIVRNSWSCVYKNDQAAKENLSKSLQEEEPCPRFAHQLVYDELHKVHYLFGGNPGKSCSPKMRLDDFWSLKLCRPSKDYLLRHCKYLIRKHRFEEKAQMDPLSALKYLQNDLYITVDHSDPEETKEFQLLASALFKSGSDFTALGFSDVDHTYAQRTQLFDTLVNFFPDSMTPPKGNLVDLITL

Wdr26 (102–641) = molecular target: T4, Wdr26 (102–641) (mouse, UniProt Q8C6G8 102-641); assay: as above
T4 construct: Wdr26, mouse, residues 102-641; also called dimeric Wdr26; (near) full-length Wdr26; source: E. coli BL21 CodonPlus (DE3) RIL, purified as described previously (van gen Hassend et al., 2023)
T4 sequence (looked up): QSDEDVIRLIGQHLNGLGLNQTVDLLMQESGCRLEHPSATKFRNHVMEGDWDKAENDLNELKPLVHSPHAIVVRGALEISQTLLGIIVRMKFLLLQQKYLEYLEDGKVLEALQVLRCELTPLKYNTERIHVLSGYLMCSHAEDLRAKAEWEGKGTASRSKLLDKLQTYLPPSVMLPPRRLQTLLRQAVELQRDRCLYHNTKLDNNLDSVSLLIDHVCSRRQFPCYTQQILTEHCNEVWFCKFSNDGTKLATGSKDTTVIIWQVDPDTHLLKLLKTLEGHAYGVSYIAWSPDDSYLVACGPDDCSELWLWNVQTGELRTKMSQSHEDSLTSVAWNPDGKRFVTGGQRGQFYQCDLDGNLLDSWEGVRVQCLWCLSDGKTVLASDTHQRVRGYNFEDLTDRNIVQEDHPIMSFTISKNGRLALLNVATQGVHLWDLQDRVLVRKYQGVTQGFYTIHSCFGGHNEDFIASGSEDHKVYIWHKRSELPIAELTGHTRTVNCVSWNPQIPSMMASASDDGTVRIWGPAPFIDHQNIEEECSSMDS

muskelin CTLH-CRA domain co-expressed with Twa1_52 (rat), sequence (chain, as listed by the source): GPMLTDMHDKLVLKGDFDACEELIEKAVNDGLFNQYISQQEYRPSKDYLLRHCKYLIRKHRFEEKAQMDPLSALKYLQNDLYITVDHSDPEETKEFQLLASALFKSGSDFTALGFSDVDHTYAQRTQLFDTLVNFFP

B1: Twa1_52 mutant (A125G, Q126R, Δ127T, L140K, E144K, L147F, F152Y, F160V), CTLH-CRA domain (domain or fragment, mouse, UniProt Q9D7M1 58-190, looked up)
chain: SVDLETLDERIKIREMILKGQIQEAIALINSLHPELLDTNRYLYFHLQQQHLIELIRQRETEAALEFGRQLAEQGEESRECKTEMKRTFALLAYDSPEESPVGDLLHMMQRQKVWSEVNQAVLDYENRESTP
notes: Twa1, mouse, CTLH-CRA domain 58-190 with eight changes; source: E. coli BL21 CodonPlus (DE3) RIL, purified (Ni-IDA, 3C cleavage, SEC); also tagless, co-expressed with muskelin or Wdr26 CTLH-CRA domain; not shown: His6, N-terminal, cleaved
stoichiometry N [1]: 1
stoichiometry N [2]: 1
Kd [3]: 146 nM
Kd (muskelin (1–735)): 17.9 nM
Kd (Wdr26 (102–641)): 15.9 nM
